Target: Sensor^BtsK (Stenotrophomonas maltophilia CGMCC …, labelled with the Monolith NT.115 Protein Labeling Kit Red NHS (a dye that reacts with amines))
Assay: MST

B1: BtsD^Δ(SP-GGDEF) (domain or fragment)
chain: APPLRDYAIDVWTSRNGLPHNSLRDIAQTPEGHLWFATWEGLVRYNGLDFTVFDRSTRPGLRDNGIGALLVDRQGGLWISDSRGNVSHRGNDGQWRVWEHQADTPQVLIQSMQMDSQGRLWLLYEGKGIGYLTPDKGIVYQAPAADLPMAMSFTKLVVDAQDRVWVGTLDGLVLRDNDGVLKRAPAAWGLGAGTGLSWPYRAPDGALWIVAGERLYRVEDDQLVLVHRLPGQLHMTSMLQDRHGDLWLGTENQGLLRISAHGLERLPAGLNLPGGRVVSLREDAEGSIWVGANGGLYRLRETLFSSYTERDGLSGDYVRTVLEDRDRQLWVGSASGLDLQTPDGRFRAVPLHNRGGKAPSVLSLAQGPDGDLWVGTFGDGVYRLDRDGSLRHNYAAADGMPGGNIRAISVDPQGRVWAGTQKGVVRIDGDRVQVSTAPGMPGGLITALEHDHQGNLWIGTIEGIRVLRGDHVQSIDLAPMGGGRSVFGFHQLGEAMWISSDRGLYRWRDGKLARVGLEQGMPVDAVFQLVPDRLGNVWISSNRGVLRTDMATLNAVADGRAPRVVVERYNEIDGMANAQANGSSGPSAILRQDGTFWVVTAGGLSTVDPQRLQRFRERPSPPAAIESVQVDGAPVHWEGPDRNYIPGGRRLAVSYVGLSYLMSDRIRYRTRLEGLDAGWVERGPQRSVEFVGLPPGDYTLHVSAAHPGGAWGQQEAVWSFTVEPFWWQRRSVQLLGGLLLLAGLVVLYRLLLQQLKASNLRLARRVDEATFDLQAKTVHLQALNQEKTELAER
Kd: 3.17 µM

From PMC11404848 (2024)
